Test results taken from US6747136.

Target: HCV E2 antigen (HCV genotype 1b) (hepatitis C virus genotype 1b)

B1: Fab molecule clone 1:11 (Fab, V domains shown)
VH: VQLLEQSGAEVKKPGSSVKVSCKASGGTFSGHVISWVRQAPGQGLEWMGGSISFFGTSNSAQKFQGRVSITADESASTAYMELSSLRSEDTAIYYCAKDPPRFCSGGNCYPGFFQQWGQGTLVTVSS
VL: AELTQSPGTLSLSPGERATLSCGASQSVRSNYLAWYQQKPGQAPRLLIYGVSSRATGIPDRFSGSGSGTDFTLTISRLEPEDFAVYYCQQYGSSPRTFGQGTKLEIK
In the case of B1, the IC50 is reported as 0.15 µg/mL.
